The source of these data is PMC8896794 (Science Advances, 2022).

Numbering of substitutions follows the chain as printed.

The target in assay [1] is T1, full-length human TSHR complexed with HLA-DP5 (HLA-DPA1*02:02/HLA-DPB1*05:01) (Homo sapiens; …, UniProt P16473;IMGT, strain).
T1 construct: thyroid-stimulating hormone receptor (TSHR), human, cDNA AY429111.1, full length; co-expressed in one cell; also called TSHR with HLA-DP5; TSHR/HLA-DP5 complex; source: HEK293T, co-transfected (pME18S), on cells; copies: + +
In words: flow cytometry on cells; HEK293T cells transfected with TSHR or TSHR ECD with or without HLA-DP (pME18S, with GFP), incubated with the human anti-TSHR mAb, then APC-conjugated anti-human IgG; FACSCalibur; MFI minus that of GFP-negative cells. (In flow cytometry, cells or beads pass a laser one at a time.)

Assay [2] has as its target T2, human TSHR extracellular domain complexed with HLA-DP5 (Homo sapiens; HLA-DPA1*02:02/DPB1*05:01, UniProt P16473;IMGT, strain).
T2 construct: human TSHR extracellular domain (ECD), residues 22 to 282; the ECD has no membrane anchor of its own and is seen on the cell surface with HLA-DP5; also called TSHR ECD with HLA-DP5; TSHR ECD/HLA-DP complex; source: HEK293T, co-transfected (pME18S), on cells; not shown: Flag, N-terminal, kept; copies: + +
The assay is described as above.

Assay [3] has as its target T3, full-length mouse TSHR with I-A^k on DAP.3 cells (Mus musculus; I-Ak, UniProt P47750;P01910;P06343).
T3 construct: thyroid-stimulating hormone receptor, mouse, cDNA NM_011648.5, full length; mouse MHC class II I-A^k alpha chain, cDNA V00832.1; mouse MHC class II I-A^k beta chain, cDNA M13538.1; co-expressed in one cell; also called mTSHR + I-A^k; mTSHR and I-A^k; copies: + +
In words: flow cytometry on cells; DAP.3 cells stably expressing mTSHR alone or mTSHR and I-A^k stained with K1-18 mAb; DAP.3 parental cells as control.

The target of assay [4] is T4, full-length mouse TSHR on DAP.3 cells (mTSHR alone) (Mus musculus, UniProt P47750).
T4 construct: thyroid-stimulating hormone receptor, mouse, cDNA NM_011648.5, full length
T4 sequence (P47750 22-764): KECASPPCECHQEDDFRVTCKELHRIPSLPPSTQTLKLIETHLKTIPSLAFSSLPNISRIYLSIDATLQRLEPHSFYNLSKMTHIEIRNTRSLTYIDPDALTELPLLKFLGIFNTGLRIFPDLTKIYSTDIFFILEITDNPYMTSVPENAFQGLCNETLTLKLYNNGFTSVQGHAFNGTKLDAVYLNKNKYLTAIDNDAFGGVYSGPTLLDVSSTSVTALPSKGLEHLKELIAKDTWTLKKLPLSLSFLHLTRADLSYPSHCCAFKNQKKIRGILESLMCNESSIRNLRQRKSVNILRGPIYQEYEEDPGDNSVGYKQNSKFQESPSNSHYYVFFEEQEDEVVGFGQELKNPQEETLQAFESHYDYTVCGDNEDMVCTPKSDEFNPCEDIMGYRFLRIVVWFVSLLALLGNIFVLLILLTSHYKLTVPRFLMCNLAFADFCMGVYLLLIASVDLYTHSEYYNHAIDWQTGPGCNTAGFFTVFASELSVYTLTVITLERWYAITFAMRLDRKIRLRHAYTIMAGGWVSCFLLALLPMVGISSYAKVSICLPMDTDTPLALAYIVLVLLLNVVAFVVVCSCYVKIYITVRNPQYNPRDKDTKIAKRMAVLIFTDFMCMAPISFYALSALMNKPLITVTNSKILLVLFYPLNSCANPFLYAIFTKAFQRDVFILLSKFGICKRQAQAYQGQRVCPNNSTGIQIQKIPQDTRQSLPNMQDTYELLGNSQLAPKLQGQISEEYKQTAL
Described as above.

For assay [5], the target named is T5, full-length human thyroid-stimulating hormone receptor, transfected alone (Homo sapiens, UniProt P16473).
T5 construct: thyroid-stimulating hormone receptor (TSHR), human, cDNA AY429111.1, full length; no MHC class II co-transfected; also called TSHR; human TSHR; source: HEK293T, transfected (pME18S), on cells
In words: flow cytometry on cells; HEK293T cells transfected with TSHR or TSHR ECD with or without HLA-DP (pME18S, with GFP), incubated with the human anti-TSHR mAb, then APC-conjugated anti-human IgG; FACSCalibur; MFI minus that of GFP-negative cells.

In assay [6] the target is T6, full-length human TSHR cotransfected with HLA-DP4 (HLA-DPA1*01:03/HLA-DPB1*04:01) (Homo sapiens; HLA-DPA1*01:03/DPB1*04:01, UniProt P16473;IMGT, strain).
T6 construct: thyroid-stimulating hormone receptor (TSHR), human, cDNA AY429111.1, full length; co-expressed in one cell; also called TSHR with HLA-DP4; source: HEK293T, co-transfected (pME18S), on cells; copies: + +
The assay is described as above.

The target of another assay is T7, porcine TSHR (Sus scrofa, UniProt Q8SPP9).
T7 construct: thyroid-stimulating hormone receptor, porcine, cDNA NM_214297.1; also called pTSHR; source: HEK293T, transfected (with GFP), on cells
T7 sequence (Q8SPP9 22-764): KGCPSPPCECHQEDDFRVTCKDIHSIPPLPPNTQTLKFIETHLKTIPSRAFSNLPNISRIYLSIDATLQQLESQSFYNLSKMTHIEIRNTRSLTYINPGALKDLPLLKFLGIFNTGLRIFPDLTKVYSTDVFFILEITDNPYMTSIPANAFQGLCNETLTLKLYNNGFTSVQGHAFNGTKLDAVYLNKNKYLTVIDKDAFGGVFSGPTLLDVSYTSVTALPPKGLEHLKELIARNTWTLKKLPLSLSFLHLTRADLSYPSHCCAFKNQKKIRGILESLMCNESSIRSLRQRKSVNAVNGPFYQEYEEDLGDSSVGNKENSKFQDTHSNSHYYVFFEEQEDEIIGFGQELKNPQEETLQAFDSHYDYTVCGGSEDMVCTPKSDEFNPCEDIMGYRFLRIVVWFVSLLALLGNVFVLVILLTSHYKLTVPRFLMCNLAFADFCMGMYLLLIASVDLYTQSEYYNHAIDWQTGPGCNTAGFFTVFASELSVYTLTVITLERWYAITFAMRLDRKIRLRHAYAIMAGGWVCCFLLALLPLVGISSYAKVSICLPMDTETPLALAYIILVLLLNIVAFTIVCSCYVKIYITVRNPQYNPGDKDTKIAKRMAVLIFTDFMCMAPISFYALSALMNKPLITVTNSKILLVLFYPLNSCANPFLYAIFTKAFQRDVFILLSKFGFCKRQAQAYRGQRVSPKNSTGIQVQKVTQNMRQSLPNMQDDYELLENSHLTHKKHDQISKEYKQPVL
In words: flow cytometry on cells; HEK293T cells transfected with pTSHR and GFP, mixed with PBS or purified mouse serum IgGs, washed, stained with M22 mAb, then APC-conjugated anti-human IgG.

T3 sequence (P47750 22-764, chain 1 of 3): as the sequence (P47750 22-764) above
T3 sequence (P01910 24-256, chain 2 of 3): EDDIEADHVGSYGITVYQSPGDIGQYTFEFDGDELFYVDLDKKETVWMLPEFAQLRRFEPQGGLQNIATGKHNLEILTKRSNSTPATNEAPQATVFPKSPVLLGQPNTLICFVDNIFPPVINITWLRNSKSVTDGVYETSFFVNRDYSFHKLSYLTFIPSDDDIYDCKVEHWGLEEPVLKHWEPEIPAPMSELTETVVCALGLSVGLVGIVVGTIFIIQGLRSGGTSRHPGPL
T3 sequence (P06343 28-263, chain 3 of 3): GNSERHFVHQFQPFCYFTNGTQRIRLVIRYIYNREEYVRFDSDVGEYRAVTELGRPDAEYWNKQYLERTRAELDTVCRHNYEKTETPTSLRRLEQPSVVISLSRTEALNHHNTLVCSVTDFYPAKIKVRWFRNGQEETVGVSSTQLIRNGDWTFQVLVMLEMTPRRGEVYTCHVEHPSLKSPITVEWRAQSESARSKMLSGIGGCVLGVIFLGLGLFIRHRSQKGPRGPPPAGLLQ

B1: K1-18 monoclonal antibody, wild type (antibody, V domains shown)
VH: EVQLVQSGAEVKKPGESLKISCKGSGYSFTNYWIGWVRQMPGKGLEWMGIIYPYDSDTRYSPSFEGQVTISADKSIRTAYLHWSSLKASDTAMYYCVRPRDGSYPYDAFDIWGQGTMVTVSS
VL: EIVLTQSPGTLSLSPGERATLSCRASQSVSNNYLAWYQQKPGQAPRLLIYGASSRATGIPDRFSGSGSGTDFTLTISRLEPEDFAVYYCQHCGSSLRAFGQGTKVEIK
notes: constant region of the λ chain is not described; IgG1; thyroid-stimulating autoantibody (TRAb) from a Graves' disease patient; also called WT K1-18; K1-18 mAb; source: recombinant, V regions synthesized and cloned into pME18S expression vectors
For the molecule B1, the binding result in assay [1], in assay [2], in assay [3] and in assay [4] was “binds” throughout.

B2: germlined K1-18 monoclonal antibody (antibody, V domains shown)
VH: B1 VH with N31S, Y54G, V97A
VL: B1 VL with N31S, N32S
notes: constant region of the λ chain is not described; IgG1; also called germlined K1-18 mAb; source: recombinant, mutated from wild-type K1-18 V regions (QuikChange), pME18S expression vectors
For B2, the binding result is recorded as “binds” in assay [1], “no binding” in assay [5] and “no binding” in assay [6].

B3: M22 thyroid-stimulating monoclonal antibody (antibody, V domains shown)
VH: QVQLVQSGAEVKKPGESLKISCRGSGYRFTSYWINWVRQLPGKGLEWMGRIDPTDSYTNYSPSFKGHVTVSADKSINTAYLQWSSLKASDTGMYYCARLEPGYSSTWSVNWGQGTLVTVSS
VL: LTVLTQPPSVSGAPRQRVTISCSGNSSNIGNNAVNWYQQLPGKAPKLLIYYDDQLPSGVSDRFSGSRSGTSASLAIRGLQSEDEADYYCTSWDDSLDSQLFGGGTRLTVL
notes: constant region of the λ chain is not described; IgG1; also called M22 mAb; source: recombinant, V regions synthesized and cloned into pME18S expression vectors
With B3, in the assay with porcine TSHR, the binding result is recorded as “binds”.
